Laboratory results from patent US11951128B2, “Compositions and methods for the isolation and/or generation of specific CD4+ and CD8+ T-cell subsets” (LA JOLLA INSTITUTE FOR ALLERGY AND IMMUNOLOGY, priority 2017, dated 2024).

Experiments:
[1] = test system: CD8ab T-cells; test: induction of CD8αα on in vitro activated CD8ab T-cells, measured with TL tetramer; type: cell-based, mice; conditions: for generation of CD8αα effector memory precursor cells: WT, IL10−/− or IL21−/− CD8ab T-cells, anti-CD3/CD28, with or without IL12
Procedure: CD8ab T-cells isolated from wild type mice (WT) or IL10 deficient mice (IL10−/−), or IL21 deficient mice (IL21−/−) were activated in vitro with anti-CD3/CD28 and with or without IL12. Induction of CD8αα was measured using TL tetramer.

[2] = test system: B16 tumor cells; test: MHC class II expression on B16 tumor cells; type: cell-based, mouse
From the text: As a result, most transferred CD4 CTL died in vivo. In addition, activated anti-tumor specific CD8 CTL kill the tumor cells in response to detecting their Ag on the tumor cells presented by MHC class I (OVA Ag on the B16-OVA). In addition they also secrete IFNg which in turn upregulate MHC class II expression on the tumor cells (right panel). Anti-tumor reactive CD8 T-cells become restrained (induction of PD-1) or undergo TL- or activation-induced cell death. Therefore, a combination of anti-tumor CD8 T-cells (or NK T-cells or DN T-cells) and anti-tumor CD4 CTL which can kill tumor cells once MHC class II is induced, can be a powerful anti-tumor immunotherapy.

Molecule	generation of CD8αβ TEM/RM [1]	generation of CD8αα effector memory precursor cells [1]	MHC class II (I-A^b) expression on tumor cells [2]
IL-21: anti-inflammatory cytokine	counteract	inhibit	–
IFNg: soluble cytokine, the only member of the type II class of interferons	–	–	induce MHC class II (I-A^b)
IL-10: anti-inflammatory cytokine (protein, UniProt P22301 19-178, looked up) Interleukin-10: SPGQGTQSENSCTHFPGNLPNMLRDLRDAFSRVKTFFQMKDQLDNLLLKESLLEDFKGYLGCQALSEMIQFYLEEVMPQAENQDPDIKAHVNSLGENLKTLRLRLRRCHRFLPCENKSKAVEQVKNAFNKLQEKGIYKAMSEFDIFINYIEAYMTMKIRN	counteract	inhibit	–
IL-12: pro-inflammatory cytokine (protein, UniProt P29459 23-219; P29460 23-328, looked up) Interleukin-12 subunit alpha: RNLPVATPDPGMFPCLHHSQNLLRAVSNMLQKARQTLEFYPCTSEEIDHEDITKDKTSTVEACLPLELTKNESCLNSRETSFITNGSCLASRKTSFMMALCLSSIYEDLKMYQVEFKTMNAKLLMDPKRQIFLDQNMLAVIDELMQALNFNSETVPQKSSLEEPDFYKTKIKLCILLHAFRIRAVTIDRVMSYLNAS Interleukin-12 subunit beta: IWELKKDVYVVELDWYPDAPGEMVVLTCDTPEEDGITWTLDQSSEVLGSGKTLTIQVKEFGDAGQYTCHKGGEVLSHSLLLLHKKEDGIWSTDILKDQKEPKNKTFLRCEAKNYSGRFTCWWLTTISTDLTFSVKSSRGSSDPQGVTCGAATLSAERVRGDNKEYEYSVECQEDSACPAAEESLPIEVMVDAVHKLKYENYTSSFFIRDIIKPDPPKNLQLKPLKNSRQVEVSWEYPDTWSTPHSYFSLTFCVQVQGKSKREKKDRVFTDKTSATVICRKNASISVRAQDRYYSSSWSEWASVPCS	promotes	promotes	–
